Biological target: thrombin
Assay: cell-based or functional assay

Chain of GST (Glutathion-S-transferase) expressed from pGEX-4T-3 (P08515 whole entry): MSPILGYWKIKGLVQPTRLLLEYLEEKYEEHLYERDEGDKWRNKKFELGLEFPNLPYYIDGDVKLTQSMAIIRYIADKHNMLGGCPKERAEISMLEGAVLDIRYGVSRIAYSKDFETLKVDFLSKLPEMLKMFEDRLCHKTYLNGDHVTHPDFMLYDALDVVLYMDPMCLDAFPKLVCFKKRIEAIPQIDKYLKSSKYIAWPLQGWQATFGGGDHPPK

thrombin activity, delta Abs (405 nm)/2 min, Test 1; sample C: pH 2.0 + 2 ug chymosin (Abs (405 nm)/2 min) | thrombin activity, delta Abs (405 nm)/2 min, Test 2; sample C: pH 2.0 + 2 ug chymosin (Abs (405 nm)/2 min) | Substance | thrombin activity, delta Abs (405 nm)/2 min, Test 1; sample E: pH 4.5 + 2 ug chymosin (Abs (405 nm)/2 min) | thrombin activity, delta Abs (405 nm)/2 min, Test 2; sample E: pH 4.5 + 2 ug chymosin (Abs (405 nm)/2 min) | also measured
0.063 | 0.073 | GST (Glutathion-S-transferase) expressed from pGEX-4T-3 (from UniProt P08515 1-218) | 0.087 | 0.087 | thrombin activity, delta Abs (405 nm)/2 min, Test 1; sample A: supernatant + water (Abs (405 nm)/2 min): 0.087; thrombin activity, delta Abs (405 nm)/2 min, Test 1; sample B: pH 2.0 (Abs (405 nm)/2 min): 0.082; thrombin activity, delta Abs (405 nm)/2 min, Test 1; sample D: pH 4.5 (Abs (405 nm)/2 min): 0.087; thrombin activity, delta Abs (405 nm)/2 min, Test 2; sample A: supernatant + water (Abs (405 nm)/2 min): 0.082; thrombin activity, delta Abs (405 nm)/2 min, Test 2; sample B: pH 2.0 (Abs (405 nm)/2 min): 0.073; thrombin activity, delta Abs (405 nm)/2 min, Test 2; sample D: pH 4.5 (Abs (405 nm)/2 min): 0.086
 |  | Hirudin 2 ug (positive control of Table 1) |  |  | thrombin activity, delta Abs (405 nm)/2 min, Test 1; Hirudin 2 ug (Abs (405 nm)/2 min): 0.0001; thrombin activity, delta Abs (405 nm)/2 min, Test 2; Hirudin 2 ug (Abs (405 nm)/2 min): 0.0001
0.066 | 0.07 | cleavage product of GST-Pro-Hirudin treated at pH 2.0 with 2 ug chymosin |  |  | 
 |  | hirudin released from GST-Pro-Hirudin by treatment at pH 4.5 with 2 ug chymosin (from UniProt P01050 1-65) | 0.0002 | 0.0001 | 

— patent US20030166162A1
